The values that follow come from patent US20240116985A1 (published 2024).

A word on the IC50: it is the point on the concentration scale where inhibition reaches its midpoint. The term EC50 denotes the concentration giving half of the maximal effect. Higher therefore signals a less potent agent.

In experiment [1] the target is T1, beta-catenin (in DLD1 TCF/LEF luciferase reporter cells) (UniProt P35222 1-781).
T1 sequence (looked up): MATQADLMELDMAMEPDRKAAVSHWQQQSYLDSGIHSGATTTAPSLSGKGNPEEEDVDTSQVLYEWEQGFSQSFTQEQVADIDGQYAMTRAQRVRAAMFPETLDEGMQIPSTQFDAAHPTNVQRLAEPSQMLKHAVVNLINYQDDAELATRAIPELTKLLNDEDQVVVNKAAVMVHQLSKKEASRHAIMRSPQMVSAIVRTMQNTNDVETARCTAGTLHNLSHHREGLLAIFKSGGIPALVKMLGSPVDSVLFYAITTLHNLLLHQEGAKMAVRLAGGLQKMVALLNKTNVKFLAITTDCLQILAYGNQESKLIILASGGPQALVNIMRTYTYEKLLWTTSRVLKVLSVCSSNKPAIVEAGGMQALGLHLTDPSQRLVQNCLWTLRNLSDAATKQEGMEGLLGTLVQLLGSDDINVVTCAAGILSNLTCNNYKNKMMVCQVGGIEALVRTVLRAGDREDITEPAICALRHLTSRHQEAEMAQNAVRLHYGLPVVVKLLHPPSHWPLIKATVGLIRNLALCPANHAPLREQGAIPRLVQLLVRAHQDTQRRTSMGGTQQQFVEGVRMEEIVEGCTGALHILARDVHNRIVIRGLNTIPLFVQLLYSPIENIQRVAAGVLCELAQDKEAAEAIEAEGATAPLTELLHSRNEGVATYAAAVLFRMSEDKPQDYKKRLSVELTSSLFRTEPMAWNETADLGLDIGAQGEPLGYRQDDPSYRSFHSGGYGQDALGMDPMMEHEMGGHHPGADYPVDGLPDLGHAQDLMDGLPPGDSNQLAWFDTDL
The experiment is described as follows: cell-based or functional assay.

Experiment [2] has as its target T2, B-cat-Halo (NanoBRET construct expressed in HEK293 cells) (UniProt P35222 1-781, HaloTag NanoBRET 618 Ligand bound in the assay).
T2 sequence (looked up): T1 sequence (looked up)
Kind of experiment: cell-based or functional assay.

Experiment [3] has as its target T3, B-cat-Halo (beta-catenin HaloTag fusion expressed in HEK293 cells) (UniProt P35222 1-781).
T3 sequence (looked up): T1 sequence (looked up)
Kind of experiment: cell-based or functional assay.

In another experiment the target is T4, B-cat-Halo (UniProt P35222 1-781).
T4 sequence (looked up): T1 sequence (looked up)
Kind of experiment: cell-based or functional assay.

The target in experiment [4] is T5, beta-catenin (in DLD1 TCF/LEF luciferase reporter cells) (UniProt P35222 1-781).
T5 sequence (looked up): T1 sequence (looked up)
The experiment is described as follows: cell-based or functional assay. This is another data set of the same source.

The target in experiment [5] is T6, B-cat-Halo (beta-catenin HaloTag NanoBRET construct expressed in HEK293 cells) (UniProt P35222 1-781).
T6 sequence (looked up): T1 sequence (looked up)
The experiment is described as follows: cell-based or functional assay.

Experiment [6] concerns the target T7, full-length beta-Catenin (Uniprot ID P35222) (Homo sapiens (Human), UniProt P35222 2-781).
T7 construct: also called bCat; B-Catenin
T7 sequence: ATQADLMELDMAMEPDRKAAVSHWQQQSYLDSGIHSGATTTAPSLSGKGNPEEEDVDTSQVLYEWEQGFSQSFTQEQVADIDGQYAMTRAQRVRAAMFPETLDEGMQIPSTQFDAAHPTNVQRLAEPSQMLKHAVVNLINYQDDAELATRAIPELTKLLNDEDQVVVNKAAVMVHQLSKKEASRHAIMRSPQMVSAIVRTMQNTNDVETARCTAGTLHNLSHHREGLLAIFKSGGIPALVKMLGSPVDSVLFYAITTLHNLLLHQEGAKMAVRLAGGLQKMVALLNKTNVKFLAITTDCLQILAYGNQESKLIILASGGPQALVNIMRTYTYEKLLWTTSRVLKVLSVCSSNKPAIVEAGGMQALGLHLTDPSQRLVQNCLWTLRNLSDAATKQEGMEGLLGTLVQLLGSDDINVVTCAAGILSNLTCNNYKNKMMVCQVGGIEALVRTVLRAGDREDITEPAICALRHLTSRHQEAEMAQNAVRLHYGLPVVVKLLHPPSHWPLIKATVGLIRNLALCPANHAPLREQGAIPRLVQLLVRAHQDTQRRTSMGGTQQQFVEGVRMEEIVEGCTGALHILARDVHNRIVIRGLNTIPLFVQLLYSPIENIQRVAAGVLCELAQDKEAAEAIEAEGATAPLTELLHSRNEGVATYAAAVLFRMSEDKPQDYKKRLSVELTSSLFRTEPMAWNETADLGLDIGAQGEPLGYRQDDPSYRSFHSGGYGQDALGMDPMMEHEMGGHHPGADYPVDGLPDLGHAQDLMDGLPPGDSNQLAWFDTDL
Kind of experiment: fluorescence polarization competition; full-length beta-catenin, competitor 5FAM-TCF4(10-53) probe. Summed up:
(§1)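 Data fitted to 1:1 binding model with hill slope from duplicate reads taken after 60 minutes at 20° C. in the dark.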
(Polarisation of emitted light reports the rotation of a fluorescent probe.)

The target in experiment [7] is T8, full-length beta-Catenin (Uniprot ID P35222) (Homo sapiens (Human), UniProt P35222 1-781).
T8 construct: also called bCat; B-Catenin
T8 sequence: T1 sequence (looked up)
The experiment is described as follows: FP competition: full-length beta-catenin 10 nM + 5FAM-TCF4(10-53) 10 nM. On the procedure:
(§2) The plate was incubated protected from light for 60 minutes at 20° C. prior to read. Reads were performed on a CLARIOstar plate reader (BMG Labtech) in duplicate, and data were fitted to a 1:1 binding model with hill slope using an in-house script. All provided concentrations are final concentrations.

Experiment [8] addresses T9, beta-catenin in DLD1 TCF/LEF luciferase reporter cells (UniProt P35222 1-781).
T9 sequence (looked up): T1 sequence (looked up)
Kind of experiment: cell-based or functional assay.

Experiment [9] concerns the target T10, B-cat-Halo (NanoBRET construct expressed in HEK293 cells) (UniProt P35222 1-781).
T10 sequence (looked up): T1 sequence (looked up)
The experiment is described as follows: cell-based or functional assay.

Experiment [10] concerns the target T11, full-length beta-Catenin (Uniprot ID P35222) (Homo sapiens (Human), UniProt P35222 1-781).
T11 construct: The assay text says 'full-length beta-Catenin (Uniprot ID P35222)'; No tags are stated for the FP assay; also called bCat; B-Catenin
T11 sequence: T1 sequence (looked up)
Kind of experiment: fluorescence polarization competition; 10 nM full-length beta-catenin with 10 nM 5FAM-labeled TCF4 (residues 10-53) probe as competitor. On the procedure: as §2

The target of experiment [11] is T12, full-length beta-Catenin (Uniprot ID P35222) (Homo sapiens (Human), UniProt P35222 1-781).
T12 construct: The FP protocol says full-length beta-Catenin (Uniprot ID P35222); also called bCat; B-Catenin
T12 sequence: T1 sequence (looked up)
The experiment is described as follows: fluorescence polarization competition; full-length beta-catenin, competitor 5FAM-TCF4(10-53) probe. An outline of the steps:
as §1

Experiment [12] concerns the target T13, beta-catenin in DLD1 TCF/LEF luciferase reporter cells (UniProt P35222 1-781).
T13 sequence (looked up): T1 sequence (looked up)
Kind of experiment: cell-based or functional assay. The source holds these as a separate data set.

Experiment [13] concerns the target T14, B-cat-Halo (beta-catenin HaloTag NanoBRET construct expressed in HEK293 cells) (UniProt P35222 1-781).
T14 sequence (looked up): T1 sequence (looked up)
The experiment is described as follows: cell-based or functional assay. This is another data set of the same source.

Read-outs that look alike come from different tables or passages of the source. Starred links: 1 amine or outer side, 2 acyl side, 3 side chain; linkers in the order of their positions; H or OH if unused. Positions of bridges follow the written chain, without caps; N, C: chain ends. Non-standard residues stand in square brackets, D forms with d. Primed or numbered codes have the meaning given here. PyrS2(3) = (S)-3-amino-1-((pent-4-en-1-yloxy)carbonyl)pyrrolidine-3-carboxylic acid, stapling residue, C=CCCCOC(=O)N1CC[C@@](N[*:1])(C(=O)[*:2])C1; PyrS2″ = (S)-3-amino-1-((pent-4-en-1-yloxy)carbonyl)pyrrolidine-3-carboxylic acid (stapling residue), C=CCCCOC(=O)N1CC[C@@](N[*:1])(C(=O)[*:2])C1; B5(16) = 2-amino-2-(pent-4-en-1-yl)hept-6-enoic acid = 2,2-bis(4-pentenyl)glycine (stitching residue), C=CCCCC(CCCC=C)(N[*:1])C(=O)[*:2]; B5(4) = 2,2-bis(4-pentenyl)glycine = 2-amino-2-(pent-4-en-1-yl)hept-6-enoic acid (stitching residue), C=CCCCC(CCCC=C)(N[*:1])C(=O)[*:2]; B5(5) = 2,2-bis(4-pentenyl)glycine, 2-amino-2-(pent-4-en-1-yl)hept-6-enoic acid (stitching residue), C=CCCCC(CCCC=C)(N[*:1])C(=O)[*:2]; B5(6) = 2-amino-2-(pent-4-en-1-yl)hept-6-enoic acid (bis(4-pentenyl)glycine), stitching residue, C=CCCCC(CCCC=C)(N[*:1])C(=O)[*:2]; TfeGA = (S)-2-amino-3-((carboxymethyl)(2,2,2-trifluoroethyl)amino)propanoic acid, O=C([C@H](CN(CC(=O)[*:3])CC(F)(F)F)N[*:1])[*:2]; PyrS2 = (S)-3-amino-1-((pent-4-en-1-yloxy)carbonyl)pyrrolidine-3-carboxylic acid, C=CCCCOC(=O)N1CC[C@@](N[*:1])(C(=O)[*:2])C1; B5″ = 2,2-bis(4-pentenyl)glycine, stitching residue, C=CCCCC(CCCC=C)(N[*:1])C(=O)[*:2]; Phe(2-Cl) = N[C@@H](Cc1ccccc1Cl)C(=O)O; Bta = N[C@@H](Cc1csc2ccccc12)C(=O)O; αAllylPro = C=CC[C@@]1(C(=O)O)CCCN1; tBuAla = CC(C)(C)C[C@H](N)C(=O)O; 3Thi = N[C@@H](Cc1ccsc1)C(=O)O; Cha = N[C@@H](CC1CCCCC1)C(=O)O; S8 = C=CCCCCCC[C@](C)(N)C(=O)O; Thr(ol) = C[C@@H](O)[C@H](N)CO

Consider Ac-[αAllylPro]D[tBuAla][B5″]D[TfeGA]AAFN[PyrS2(3)][3Thi][Bta]Q-NH2 (staple 1-4, 4-11) [I-762], for which the “DLD1 4% Abs IC50” value in experiment [1] was 7.9 µM. The “NanoBRET Abs IC50” value in experiment [2] is 14 µM.
For Ac-[αAllylPro]D[Cha][B5(16)]DEAAFN[S8]F[Bta]Q-NH2 (staple 1-4, 4-11; also: later-eluting staple isomer composition) [I-620], the “NanoBRET Abs IC50” value in experiment [3] came out at 12 µM.
Ac-[αAllylPro]D[tBuAla][B5(4)]DDAAFL[PyrS2][3Thi][Bta][Thr(ol)] (staple 1-4, 4-11) [I-1302]: in the experiment with B-cat-Halo, the “NanoBRET Abs IC50 (uM); B-cat-Halo / TCF4-Luc in HEK293 cells” value worked out at 21.4 µM. In experiment [4], the “DLD1 4% Abs IC50 (uM); TCF/LEF luciferase reporter in DLD1 cells” value was determined as 4 µM.
In the case of Ac-[αAllylPro]D[tBuAla][B5(5)]D[TfeGA]AAFN[S8]F[Bta]Q-NH2 (staple 1-4, 4-11) [I-703], the “NanoBRET Abs IC50” value in experiment [5] was 11.9 µM.
In the case of Ac-[αAllylPro]DF[B5(4)]DDLLFT[PyrS2″][Phe(2-Cl)][Bta]S-NH2 (staple 1-4, 4-11, '2C1F' is printed for 2ClF) [I-1158], the concentration for half-maximal inhibition (IC50) in experiment [6] amounted to 0.168 µM.
As to Ac-[αAllylPro]DL[B5(6)]DEAAFQ[S8]F[Bta]Q-NH2 (staple 1-4, 4-11, Stapled peptide composition) [I-505], the half-maximal inhibitory concentration (IC50) in experiment [7] is 0.023 µM. Also, the “DLD1 4% Abs IC50” value in experiment [8] is 9.4 µM. In addition, in experiment [9], the “NanoBRET Abs IC50” value came out at 4.9 µM.

B1: I-217 (peptide)
peptide: Ac-[αAllylPro]DA[B5(4)]DEAAXV[S8]FWQ-NH2
modifications: staple 1-4, 4-11; not fully specified (residue 9); printed as Ac-PL3-Asp-Ala-B5-Asp-Glu-Ala-Ala-MeTyr-Val-S8-Phe-Trp-Gln-NH2
notes: Stapled (stitched) peptide; also called Ac-PL3-Asp-Ala-B5-Asp-Glu-Ala-Ala-MeTyr-Val-S8-Phe-Trp-Gln-NH2
Turning to B1, the IC50 in [10] turned out to be 1.96 µM.
The molecule Ac-[αAllylPro]DF[B5(4)]DDAAFS[PyrS2][Phe(2-Cl)][Bta]S-NH2 (staple 1-4, 4-11) [I-1051] yielded an EC50 in [11] of 0.014 µM. The “DLD1 reporter assay Abs IC50” value in [12] was over 20 µM. Further, in experiment [13], the “NanoBRET Abs IC50” value is over 20 µM.
